This is an account of results in paper PMC3419730, “NRFL-1, the C. elegans NHERF Orthologue, Interacts with Amino Acid Transporter 6 (AAT-6) for Age-Dependent Maintenance of AAT-6 on the Membrane” (PLoS ONE, 2012).

Changes are numbered by the printed parent chain.

The target in test [1] is T1, 3×FLAG-NRFL-1 (wild type) (C. elegans, UniProt G5EDM4 1-467).
T1 construct: NRFL-1 (C01F6.6a), C. elegans, full-length wild type; cDNA first ligated into p3×FLAG-myc-CMV-24, then the 3×FLAG-NRFL-1 fragment moved into pGEX-6P-1; also called recombinant NRFL-1 wild-type; not shown: GST, N-terminal, cleaved; 3×FLAG, N-terminal, kept
T1 sequence (looked up): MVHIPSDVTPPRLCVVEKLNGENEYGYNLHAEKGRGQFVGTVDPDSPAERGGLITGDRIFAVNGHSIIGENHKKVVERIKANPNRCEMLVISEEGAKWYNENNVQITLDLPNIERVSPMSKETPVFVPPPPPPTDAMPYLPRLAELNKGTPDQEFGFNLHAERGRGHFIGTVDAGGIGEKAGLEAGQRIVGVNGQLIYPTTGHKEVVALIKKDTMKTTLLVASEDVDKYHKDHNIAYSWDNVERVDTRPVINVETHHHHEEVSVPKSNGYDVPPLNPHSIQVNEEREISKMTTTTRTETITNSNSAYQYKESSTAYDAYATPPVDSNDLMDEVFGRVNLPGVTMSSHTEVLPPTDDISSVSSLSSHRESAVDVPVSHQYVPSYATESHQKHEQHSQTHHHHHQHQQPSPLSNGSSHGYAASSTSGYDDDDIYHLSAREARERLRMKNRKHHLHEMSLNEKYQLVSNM
The test can be described thus: pull-down; GST pull-down: 2 µg GST fusion protein and 5 µg recombinant 3×FLAG-NRFL-1, overnight at 4°C in 50 mM Tris pH 7.4, 150 mM NaCl, 5 mM EDTA, 0.1% NP-40; blot with anti-FLAG. The note with it: both partners purified.

Test [2] addresses T2, 3×FLAG-NRFL-1 with PDZ I mutated (G26A/Y27A) (C. elegans, UniProt G5EDM4 1-467, G26A | Y27A).
T2 construct: not shown: GST, N-terminal, cleaved; 3×FLAG, N-terminal, kept
T2 sequence (looked up): T1 sequence (looked up) with G26A, Y27A
The description is as above. Conditions: both partners purified.

B1: GST fusion of AAT-6 C-terminus tail corresponding to residues 487–523 (domain or fragment, C. elegans, UniProt Q22397 487-523, looked up)
chain: GDEEMKNAIGGAESESEKVPAYKISPTGNGQFKCTRM
notes: also called GST-AAT-6; source: E. coli BL21 (DE3), purified (Glutathione Sepharose 4B); not shown: GST, N-terminal, kept
As to B1, the binding result in test [1] and in test [2] was “binds” each time.
